Where “and” joins values, the source holds several entries; their conditions need not be identical. Equal entries are not always repeated.
Key:
Type in all cases: biochemical, human
[1] = substrate: NCCC(=O)c1ccccc1N; experiment: Kynuramine oxidative deamination kinetics (saturation, optimization) with MAO-B; settings: other: kynuramine 2-500 μM, 15 min, mean ± SEM; pH 7.4; 37.0 °C
Procedure: (§1) The optimized incubation time and human recombinant MAO concentration were selected in the linear range from the time-dependent and MAO concentration-dependent studies (Supplemental Data). Briefly, samples were prepared in potassium phosphate buffer (100 mM, pH 7.4) with a final concentration of MAO in the reaction solution of 0.01 mg/mL, incubated at 37°C for 15 min. Saturation of kynuramine metabolism with MAO-A/B was carried out at concentrations of 2, 5, 10, 25, 50, 100, 250, 500 μM. The enzymatic reactions (200μL) were stopped by 2 N NaOH (75 μL) followed with 70% perchloric acid (25 μL). The samples were vortexed and centrifuged for 5 min at 10,000×g. The supernatant was analyzed by HPLC as described above.
(§2) GraphPad Prism 5 was applied to fit a Michaelis-Menten model to the data to obtain the Km values in the saturation experiments. In the screening experiments, significant differences between control and treated group were determined by a one-way ANOVA followed by Dunnett's posttest (p < 0.05). […] The maximum single doses are from published sources. The relevant GI concentration is the lesser of either solubility or the concentration after a single dose. […]
(§3) Kynuramine (10 µM) was incubated with MAO-A (0.01 mg/mL) in 200 µL potassium phosphate buffer (100 mM, pH 7.4) for 10, 20, 30, 40, and 60 min. The formation of 4-hydroxyquinoline was analyzed after the enzymatic reaction. […]

[2] = substrate: NCCC(=O)c1ccccc1N; experiment: Inhibition mechanism studies (competition, time dependence) with MAO-B; settings: other: competition study control, kynuramine 2-450 μM
[3] = substrate: NCCC(=O)c1ccccc1N; experiment: Kynuramine oxidative deamination kinetics (saturation, optimization) with MAO-A; settings: other: kynuramine 2-500 μM, 15 min, mean ± SEM; pH 7.4; 37.0 °C
Procedure: as §1, §2, §3

[4] = substrate: NCCC(=O)c1ccccc1N; experiment: Inhibition mechanism studies (competition, time dependence) with MAO-A; settings: other: competition study control, kynuramine 2-450 μM

B1: human recombinant MAO-B (Homo sapiens) (protein)
chain: MSNKCDVVVVGGGISGMAAAKLLHDSGLNVVVLEARDRVGGRTYTLRNQKVKYVDLGGSYVGPTQNRILRLAKELGLETYKVNEVERLIHHVKGKSYPFRGPFPPVWNPITYLDHNNFWRTMDDMGREIPSDAPWKAPLAEEWDNMTMKELLDKLCWTESAKQLATLFVNLCVTAETHEVSALWFLWYVKQCGGTTRIISTTNGGQERKFVGGSGQVSERIMDLLGDRVKLERPVIYIDQTRENVLVETLNHEMYEAKYVISAIPPTLGMKIHFNPPLPMMRNQMITRVPLGSVIKCIVYYKEPFWRKKDYCGTMIIDGEEAPVAYTLDDTKPEGNYAAIMGFILAHKARKLARLTKEERLKKLCELYAKVLGSLEALEPVHYEEKNWCEEQYSGGCYTTYFPPGILTQYGRVLRQPVDRIYFAGTETATHWSGYMEGAVEAGERAAREILHAMGKIPEDEIWQSEPESVDVPAQPITTTFLERHLPSVPGLLRLIGLTTIFSATALGFLAHKRGLLVRV
notes: purchased BD Biosciences (San Jose, CA) or Corning Discovery Labware (Woburn, MA)
Km [1]: 18.0 ± 2.3 µM | Vmax [1]: 7.35 ± 0.69 nmol/min/mg

B2: MAO-B (Homo sapiens) (protein)
chain: B1 chain
notes: as for B1
Km [2]: 14.4 ± 1.2 µM | Vmax [2]: 3.44 ± 0.07 nmol/min/mg protein

B3: human recombinant MAO-A (Homo sapiens) (protein)
chain: MENQEKASIAGHMFDVVVIGGGISGLSAAKLLTEYGVSVLVLEARDRVGGRTYTIRNEHVDYVDVGGAYVGPTQNRILRLSKELGIETYKVNVSERLVQYVKGKTYPFRGAFPPVWNPIAYLDYNNLWRTIDNMGKEIPTDAPWEAQHADKWDKMTMKELIDKICWTKTARRFAYLFVNINVTSEPHEVSALWFLWYVKQCGGTTRIFSVTNGGQERKFVGGSGQVSERIMDLLGDQVKLNHPVTHVDQSSDNIIIETLNHEHYECKYVINAIPPTLTAKIHFRPELPAERNQLIQRLPMGAVIKCMMYYKEAFWKKKDYCGCMIIEDEDAPISITLDDTKPDGSLPAIMGFILARKADRLAKLHKEIRKKKICELYAKVLGSQEALHPVHYEEKNWCEEQYSGGCYTAYFPPGIMTQYGRVIRQPVGRIFFAGTETATKWSGYMEGAVEAGERAAREVLNGLGKVTEKDIWVQEPESKDVPAVEITHTFWERNLPSVSGLLKIIGFSTSVTALGFVLYKYKLLPRS
notes: as for B1
Km [3]: 23.1 ± 0.8 µM and 23 µM | Vmax [3]: 10.2 ± 0.2 nmol/min/mg

B4: MAO-A (Homo sapiens) (protein)
chain: B3 chain
notes: as for B1
Km [4]: 8.46 ± 1.56 µM | Vmax [4]: 17.4 ± 0.7 nmol/min/mg protein

From publication PMC6364133, “Selectivity of Dietary Phenolics for Inhibition of Human Monoamine Oxidases A and B” (BioMed Research International, 2019)
